Data reported in the supplement of paper PMC10065799, “High-throughput profiling of sequence recognition by tyrosine kinases and SH2 domains using bacterial peptide display” (eLife, 2023).

Key:
SHP2-C SH2 = assay: SH2 binding enrichment of the phosphorylated peptide, bacterial display (enrichment ratio); higher = better substrate or ligand; peptides without Tyr show the background
c-Src SH2 = assay: as above
Grb2 SH2 = Grb2 SH2 (UniProt P62993); assay: as above
c-Abl (mouse) = assay: phosphorylation enrichment, bacterial display (enrichment ratio); higher = better substrate or ligand; peptides without Tyr show the background
EPHB1 = EPHB1 (UniProt P54762); assay: as above
AncSZ = assay: as above
Jak2 = Jak2 (UniProt O60674); assay: as above
Hck = Hck (UniProt P08631); assay: as above
FGFR3 = FGFR3 (UniProt P22607); assay: as above
MERTK = MERTK (UniProt Q12866); assay: as above
Fer (mouse) = assay: as above
c-Src = assay: as above
EPHB2 = EPHB2 (UniProt P29323); assay: as above
FGFR1 = FGFR1 (UniProt P11362); assay: as above
Fes = Fes (UniProt P07332); assay: as above
Fyn = Fyn (UniProt P06241); assay: as above
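Throughout, for SH2 binding enrichment of the phosphorylated peptide, bacterial display: peptide library displayed on the E. coli surface as eCPX fusions, selected cells deep-sequenced, score is each peptide's frequency after selection divided by its frequency in the input.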
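Throughout, for phosphorylation enrichment, bacterial display: 11-residue human phosphosite peptides and single-mutation variants displayed on the E. coli surface, counted by deep sequencing, each peptide's frequency after selection divided by its frequency in the unselected input library; frequency after pTyr selection over input frequency; kinase dosed for 20-30% of maximal phosphorylation in three min.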

FGFR1, sequence (P11362 whole entry, looked up): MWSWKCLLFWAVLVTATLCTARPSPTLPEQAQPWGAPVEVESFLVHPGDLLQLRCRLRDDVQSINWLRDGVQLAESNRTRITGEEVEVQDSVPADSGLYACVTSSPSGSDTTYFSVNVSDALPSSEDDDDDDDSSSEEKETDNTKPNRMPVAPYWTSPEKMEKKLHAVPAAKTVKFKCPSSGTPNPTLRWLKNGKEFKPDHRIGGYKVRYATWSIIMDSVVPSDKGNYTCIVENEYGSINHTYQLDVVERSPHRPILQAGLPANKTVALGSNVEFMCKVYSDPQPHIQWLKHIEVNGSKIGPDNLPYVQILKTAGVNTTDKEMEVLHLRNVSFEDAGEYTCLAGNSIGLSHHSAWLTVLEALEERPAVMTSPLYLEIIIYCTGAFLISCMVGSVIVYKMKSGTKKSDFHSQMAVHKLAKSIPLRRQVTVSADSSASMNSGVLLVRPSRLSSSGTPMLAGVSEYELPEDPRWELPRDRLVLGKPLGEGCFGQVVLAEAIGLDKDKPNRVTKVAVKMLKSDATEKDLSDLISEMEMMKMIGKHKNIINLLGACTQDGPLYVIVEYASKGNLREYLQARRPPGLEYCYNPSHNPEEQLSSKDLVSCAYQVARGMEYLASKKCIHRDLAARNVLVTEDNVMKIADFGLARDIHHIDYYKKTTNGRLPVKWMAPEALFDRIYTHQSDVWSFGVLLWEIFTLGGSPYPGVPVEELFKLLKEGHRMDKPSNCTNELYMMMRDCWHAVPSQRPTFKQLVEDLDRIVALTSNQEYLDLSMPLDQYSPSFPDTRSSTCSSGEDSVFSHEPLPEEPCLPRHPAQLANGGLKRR
Fes, sequence (P07332 whole entry, looked up): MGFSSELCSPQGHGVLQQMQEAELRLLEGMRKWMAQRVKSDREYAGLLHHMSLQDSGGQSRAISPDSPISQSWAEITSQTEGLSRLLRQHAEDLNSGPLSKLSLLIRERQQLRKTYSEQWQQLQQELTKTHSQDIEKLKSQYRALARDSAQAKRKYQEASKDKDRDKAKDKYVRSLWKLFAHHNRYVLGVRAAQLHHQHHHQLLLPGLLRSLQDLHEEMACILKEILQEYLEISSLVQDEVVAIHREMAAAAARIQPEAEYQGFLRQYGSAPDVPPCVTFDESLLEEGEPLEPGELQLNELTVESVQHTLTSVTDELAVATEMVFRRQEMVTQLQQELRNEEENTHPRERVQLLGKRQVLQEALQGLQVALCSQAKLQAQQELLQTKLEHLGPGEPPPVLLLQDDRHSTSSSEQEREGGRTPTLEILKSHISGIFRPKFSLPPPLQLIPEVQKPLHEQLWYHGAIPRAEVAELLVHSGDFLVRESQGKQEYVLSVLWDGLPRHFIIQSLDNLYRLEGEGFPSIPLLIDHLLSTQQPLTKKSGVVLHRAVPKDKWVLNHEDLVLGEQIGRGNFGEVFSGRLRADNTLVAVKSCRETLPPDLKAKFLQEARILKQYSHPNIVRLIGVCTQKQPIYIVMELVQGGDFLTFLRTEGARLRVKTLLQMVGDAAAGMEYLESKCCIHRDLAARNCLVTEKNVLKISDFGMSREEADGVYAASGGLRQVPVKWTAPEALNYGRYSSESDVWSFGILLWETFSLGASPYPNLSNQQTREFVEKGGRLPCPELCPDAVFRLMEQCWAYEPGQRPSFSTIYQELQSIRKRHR
Hck, sequence (P08631 whole entry, looked up): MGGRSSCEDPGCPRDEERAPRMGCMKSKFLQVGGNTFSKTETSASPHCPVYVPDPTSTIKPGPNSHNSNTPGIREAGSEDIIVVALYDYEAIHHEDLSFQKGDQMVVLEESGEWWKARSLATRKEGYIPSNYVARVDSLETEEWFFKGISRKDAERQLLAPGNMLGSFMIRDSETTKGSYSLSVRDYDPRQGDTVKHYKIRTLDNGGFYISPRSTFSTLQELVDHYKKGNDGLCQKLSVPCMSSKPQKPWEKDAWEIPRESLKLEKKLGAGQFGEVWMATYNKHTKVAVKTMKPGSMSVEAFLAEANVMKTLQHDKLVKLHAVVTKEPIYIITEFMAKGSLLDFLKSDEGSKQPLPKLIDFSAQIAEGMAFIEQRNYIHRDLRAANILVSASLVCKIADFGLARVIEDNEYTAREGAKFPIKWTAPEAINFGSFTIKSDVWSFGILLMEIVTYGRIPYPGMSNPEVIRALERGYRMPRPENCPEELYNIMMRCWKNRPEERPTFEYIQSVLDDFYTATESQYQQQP
MERTK, sequence (Q12866 whole entry, looked up): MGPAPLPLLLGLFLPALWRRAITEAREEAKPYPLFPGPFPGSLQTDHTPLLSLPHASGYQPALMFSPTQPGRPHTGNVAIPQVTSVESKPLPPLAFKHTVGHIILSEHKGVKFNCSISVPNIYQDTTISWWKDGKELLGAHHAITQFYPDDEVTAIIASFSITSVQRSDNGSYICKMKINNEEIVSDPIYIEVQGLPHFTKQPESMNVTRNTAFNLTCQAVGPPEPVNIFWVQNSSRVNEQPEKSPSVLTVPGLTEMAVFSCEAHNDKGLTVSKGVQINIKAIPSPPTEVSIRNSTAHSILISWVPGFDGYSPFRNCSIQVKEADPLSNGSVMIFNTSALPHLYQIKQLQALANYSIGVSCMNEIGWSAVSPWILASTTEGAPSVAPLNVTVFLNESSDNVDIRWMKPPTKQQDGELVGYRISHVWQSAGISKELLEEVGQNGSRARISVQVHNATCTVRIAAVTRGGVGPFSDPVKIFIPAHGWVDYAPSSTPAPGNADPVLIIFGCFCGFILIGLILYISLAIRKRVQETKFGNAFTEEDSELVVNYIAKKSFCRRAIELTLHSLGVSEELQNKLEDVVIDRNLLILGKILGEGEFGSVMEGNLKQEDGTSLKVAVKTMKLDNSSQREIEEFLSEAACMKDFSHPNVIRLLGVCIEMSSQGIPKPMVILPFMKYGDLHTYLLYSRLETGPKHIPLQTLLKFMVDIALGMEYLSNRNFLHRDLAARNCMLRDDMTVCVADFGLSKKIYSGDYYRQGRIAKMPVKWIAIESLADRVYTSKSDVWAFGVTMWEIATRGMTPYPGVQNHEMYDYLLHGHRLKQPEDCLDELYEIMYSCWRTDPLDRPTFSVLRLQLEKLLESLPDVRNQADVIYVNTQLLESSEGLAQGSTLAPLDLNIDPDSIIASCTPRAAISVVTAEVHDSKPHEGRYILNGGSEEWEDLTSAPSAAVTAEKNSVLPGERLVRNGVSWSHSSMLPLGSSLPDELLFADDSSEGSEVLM
Fyn, sequence (P06241 whole entry, looked up, the tested form may be a part): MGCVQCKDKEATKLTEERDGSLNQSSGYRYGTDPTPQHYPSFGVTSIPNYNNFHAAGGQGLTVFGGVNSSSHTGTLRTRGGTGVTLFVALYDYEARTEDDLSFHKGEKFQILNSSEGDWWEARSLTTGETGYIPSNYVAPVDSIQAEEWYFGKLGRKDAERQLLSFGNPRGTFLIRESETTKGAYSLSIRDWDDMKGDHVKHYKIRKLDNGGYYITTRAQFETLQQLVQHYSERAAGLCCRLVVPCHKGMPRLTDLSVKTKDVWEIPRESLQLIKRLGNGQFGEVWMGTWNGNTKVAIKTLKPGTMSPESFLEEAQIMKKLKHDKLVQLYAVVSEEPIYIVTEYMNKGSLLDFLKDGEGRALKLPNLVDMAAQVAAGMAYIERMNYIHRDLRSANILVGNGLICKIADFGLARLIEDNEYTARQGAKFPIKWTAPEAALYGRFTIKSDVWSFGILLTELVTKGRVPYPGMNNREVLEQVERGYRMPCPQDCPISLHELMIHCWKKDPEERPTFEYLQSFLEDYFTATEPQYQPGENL
FGFR3, sequence (P22607 whole entry, looked up): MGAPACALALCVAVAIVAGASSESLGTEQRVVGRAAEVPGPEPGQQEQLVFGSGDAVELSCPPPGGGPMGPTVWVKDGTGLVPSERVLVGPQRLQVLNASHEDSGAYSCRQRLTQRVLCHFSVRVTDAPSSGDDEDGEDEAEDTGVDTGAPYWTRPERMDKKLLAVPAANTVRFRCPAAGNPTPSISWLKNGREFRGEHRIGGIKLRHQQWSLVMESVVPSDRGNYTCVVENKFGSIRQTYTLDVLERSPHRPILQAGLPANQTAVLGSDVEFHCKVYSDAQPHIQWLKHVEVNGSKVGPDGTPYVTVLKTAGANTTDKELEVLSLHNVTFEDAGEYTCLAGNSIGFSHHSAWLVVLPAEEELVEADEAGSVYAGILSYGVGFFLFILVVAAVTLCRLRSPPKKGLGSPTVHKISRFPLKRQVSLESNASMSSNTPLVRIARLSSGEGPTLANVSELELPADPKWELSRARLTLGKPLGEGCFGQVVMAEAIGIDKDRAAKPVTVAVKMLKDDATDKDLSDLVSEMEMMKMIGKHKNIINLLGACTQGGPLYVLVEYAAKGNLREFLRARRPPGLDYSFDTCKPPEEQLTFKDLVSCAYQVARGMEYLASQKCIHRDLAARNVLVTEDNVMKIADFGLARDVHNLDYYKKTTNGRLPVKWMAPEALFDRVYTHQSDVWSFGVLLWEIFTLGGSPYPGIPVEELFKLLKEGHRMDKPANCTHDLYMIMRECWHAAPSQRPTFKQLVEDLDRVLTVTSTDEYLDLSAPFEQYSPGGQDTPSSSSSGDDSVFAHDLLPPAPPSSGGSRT

Sequence	SH2 binding enrichment (SHP2-C SH2)	SH2 binding enrichment (c-Src SH2)	SH2 binding enrichment (Grb2 SH2)	phosphorylation enrichment (c-Abl (mouse))	phosphorylation enrichment (EPHB1)	phosphorylation enrichment (AncSZ)	phosphorylation enrichment (Jak2)	phosphorylation enrichment (Hck)	phosphorylation enrichment (FGFR3)	phosphorylation enrichment (MERTK)	phosphorylation enrichment (Fer (mouse))	phosphorylation enrichment (c-Src)	phosphorylation enrichment (EPHB2)	phosphorylation enrichment (FGFR1)	phosphorylation enrichment (Fes)	phosphorylation enrichment (Fyn)
FYDANYDGKEY [MAPRE2_Y162]	0.473	0.725	0.823	0.712	0.63	1.22	1.14	0.83	0.796	1.17	0.627	0.941	1.23	0.699	1.37	0.642
FYVVRYCWLRR [MPZ_Y181]	0.565	0.545	0.761	0.758	0.496	0.869	0.596	0.567	0.614	0.604	0.51	0.612	0.508	0.595	0.747	0.62
GDDLSYGDVPP [IRS1_Y151_E147D]	0.549	0.573	0.752	0.751	0.543	1.11	1.04	0.535	0.576	0.413	0.61	0.63	0.588	0.479	1.24	0.426
GDFLSYREFHS [ERBIN_Y1107_YF]	0.639	0.49	0.741	0.534	0.386	0.625	0.557	0.385	0.567	0.359	0.489	0.423	0.469	0.432	0.686	0.348
GGTPLYRDRQG [AGXT_Y194_M195R]	0.78	0.389	0.87	0.5	0.383	0.652	0.4	0.398	0.423	0.364	0.415	0.358	0.435	0.44	0.499	0.378
GHGEEYPAAGA [NOTCH3_Y2221]	0.626	0.384	0.888	0.469	0.41	0.682	0.549	0.431	0.719	0.379	0.433	0.377	0.327	0.413	0.821	0.426
GKGGSYSQAAC [HLA-B_Y344]	0.881	0.746	0.971	0.625	0.352	0.452	0.569	0.419	0.444	0.377	0.408	0.396	0.365	0.385	0.649	0.342
GLAELYEYKKK [CKAP5_Y1854]	1.31	0.671	1.26	0.464	0.479	0.671	0.393	0.924	0.546	0.303	0.32	0.489	0.397	0.7	0.719	0.569
GLAKEYIDPET [CSNK1G2_Y195]	0.967	0.448	0.942	0.592	0.527	0.743	0.904	0.449	0.604	0.4	0.509	0.454	0.462	0.544	0.941	0.494
GLGGGCGGASG [KRT8_Y54_Y54C]	0.712	0.525	0.944	0.444	0.465	0.582	0.508	0.505	0.544	0.384	0.449	0.404	0.499	0.494	0.817	0.433
GPIIRYDLGGA [CYP11B1_Y81_F79I]	0.851	0.495	0.645	0.518	0.585	0.648	0.626	0.384	0.498	0.477	0.396	0.405	0.366	0.617	0.723	0.412
GPTLSYGRDGR [MATR3_Y158]	0.739	0.532	0.692	0.369	0.276	0.435	0.449	0.379	0.377	0.488	0.306	0.332	0.347	0.363	0.526	0.33
GQECKYPPTQD [METAP2_Y137_E136K]	0.689	0.63	1.04	0.727	0.521	0.86	1.03	0.52	0.638	0.553	0.511	0.504	0.507	0.569	1.14	0.515
GRFCGYKSKHG [EPHA3_Y570]	1.49	1.43	1.32	0.587	0.506	0.469	0.726	0.377	0.638	0.376	0.426	0.363	0.368	0.374	0.664	0.321
GSCQEYTGAPY [NAXD_Y85_G81S]	0.764	0.825	0.799	0.668	0.573	1.14	0.805	0.545	0.7	0.432	0.494	0.505	0.537	0.558	0.894	0.441
GSTLSYFGLAA [P2RX7_Y343]	0.962	0.646	1.14	0.525	0.483	0.725	6.12	0.63	1.6	0.892	0.43	0.629	0.621	1.83	1.11	0.571
GTATTYLCGVK [ALPL_Y117_A116T]	1.15	0.483	0.67	0.811	0.5	0.914	0.946	0.582	0.758	0.493	0.495	0.472	0.8	0.595	1.13	0.479
GVLKEYVVKVL [CPS1_Y529_G530V]	0.748	0.479	0.949	0.67	0.477	0.989	0.814	0.386	0.546	0.32	0.384	0.355	0.491	0.383	1.06	0.389
GVSFIYTIDGS [DCX_Y105_R102S_YF]	0.725	0.584	0.88	0.927	0.694	1.43	1.54	0.976	0.753	0.552	0.491	1.98	0.532	0.496	1.31	2.18
GYRPVYSEDEQ [CHST6_Y362]	0.669	0.692	0.921	0.774	0.677	1.26	1.16	0.49	0.806	0.48	0.643	0.636	0.762	0.471	1.24	0.61
GYSRHCEDGYP [CTNND1_Y217_Y217C]	0.563	0.544	0.796	0.928	0.521	0.869	0.879	0.5	0.556	0.446	0.465	0.489	0.83	0.46	0.972	0.44
HAVVDYMRRQK [ATM_Y1915_L1910H]	0.364	0.381	0.6	0.595	0.701	1.16	0.892	0.694	1	0.654	0.535	0.539	1.03	0.799	1.14	0.634

More lines, main results first:

SH2 binding enrichment (SHP2-C SH2)	SH2 binding enrichment (c-Src SH2)	SH2 binding enrichment (Grb2 SH2)	Sequence	phosphorylation enrichment (c-Abl (mouse))	phosphorylation enrichment (EPHB1)	phosphorylation enrichment (AncSZ)	phosphorylation enrichment (Jak2)	phosphorylation enrichment (Hck)	phosphorylation enrichment (FGFR3)	phosphorylation enrichment (MERTK)	phosphorylation enrichment (Fer (mouse))	phosphorylation enrichment (c-Src)	phosphorylation enrichment (EPHB2)	phosphorylation enrichment (FGFR1)	phosphorylation enrichment (Fes)	phosphorylation enrichment (Fyn)
0.739	0.521	0.78	GESKDYALHAG [SVIL_Y185_V189A]	0.488	0.479	0.548	0.493	0.38	0.455	0.36	0.366	0.413	0.527	0.365	0.566	0.421
0.62	0.451	0.787	GGFTCCCDGKK [PROS1_Y266_Y266C_YF]	0.977	0.736	1.12	1.16	0.504	0.755	0.468	0.542	0.546	0.659	0.509	1.34	0.463
0.647	0.355	0.743	GGPAEYLRRAS [PKLR_Y38_G37E]	0.675	0.41	0.954	0.508	0.374	0.415	0.361	0.367	0.285	0.334	0.363	0.76	0.427
0.524	0.455	0.667	GGYTWYCDGKK [PROS1_Y266_C265W]	0.882	0.641	1.1	1.47	0.414	0.795	0.359	0.524	0.399	0.537	0.455	1.24	0.362
1.26	0.835	0.71	GITVAYTIPKK [UBA5_Y372]	0.702	0.441	0.763	0.669	0.317	0.534	0.528	0.384	0.396	0.331	0.337	0.739	0.475
0.697	0.65	0.76	GKAFIYASHIV [ZNF573_Y229]	0.996	0.557	0.802	0.869	0.604	0.602	0.408	1.16	1.21	0.42	0.427	1	0.666
0.965	0.575	0.878	GKTFTYRSVFF [ZNF80_Y200]	0.693	0.464	0.809	0.744	0.374	0.562	0.42	0.457	0.412	0.466	0.388	0.951	0.43
0.832	0.802	1.07	GRTNIYKNKKD [SLC26A3_Y520]	0.721	0.415	0.467	0.66	0.447	0.475	0.43	0.349	0.434	0.393	0.369	0.648	0.308
1.19	0.833	1.12	GSSKIYFLHAD [TLR5_Y108_P112A]	0.579	0.492	0.862	0.954	0.712	0.731	0.797	0.423	0.893	0.557	0.8	0.984	0.951
0.54	0.472	0.969	GVKLTYGDAQN [SLC28A1_Y404]	0.813	0.379	0.726	1.63	0.369	0.473	0.397	0.397	0.499	0.45	0.53	0.872	0.479
1.41	1.98	1.97	HAVFVCDICHV [TWNK_Y508_Y508C_YF]	0.641	0.627	0.933	0.948	0.603	0.775	0.689	0.696	0.807	0.631	0.506	0.836	0.455
